# B1: dopamine transporter (DAT; rDAT) (Rattus norvegicus) (protein)
# chain: MSKSKCSVGPMSSVVAPAKESNAVGPREVELILVKEQNGVQLTNSTLINPPQTPVEAQERETWSKKIDFLLSVIGFAVDLANVWRFPYLCYKNGGGAFLVPYLLFMVIAGMPLFYMELALGQFNREGAAGVWKICPVLKGVGFTVILISFYVGFFYNVIIAWALHYFFSSFTMDLPWIHCNNTWNSPNCSDAHASNSSDGLGLNDTFGTTPAAEYFERGVLHLHQSRGIDDLGPPRWQLTACLVLVIVLLYFSLWKGVKTSGKVVWITATMPYVVLTALLLRGVTLPGAMDGIRAYLSVDFYRLCEASVWIDAATQVCFSLGVGFGVLIAFSSYNKFTNNCYRDAIITTSINSLTSFSSGFVVFSFLGYMAQKHNVPIRDVATDGPGLIFIIYPEAIATLPLSSAWAAVFFLMLLTLGIDSAMGGMESVITGLVDEFQLLHRHRELFTLGIVLATFLLSLFCVTNGGIYVFTLLDHFAAGTSILFGVLIEAIGVAWFYGVQQFSDDIKQMTGQRPNLYWRLCWKLVSPCFLLYVVVVSIVTFRPPHYGAYIFPDWANALGWIIATSSMAMVPIYATYKFCSLPGSFREKLAYAITPEKDHQLVDRGEVRQFTLRHWLLL
# Substrate: NCCc1ccc(O)c(O)c1
# Experiment: [3H]DA uptake kinetics
# Type: cell-based, Rattus norvegicus
protein,measurement,value
B1,Km,1.50 ± 0.10 µM
